From IntAct's records for PubMed 24944246

B1: Krueppel-like factor 10 (Homo sapiens), Q13118 (parent)
chain: MLNFGASLQQTAEERMEMISERPKESMYSWNKTAEKSDFEAVEALMSMSCSWKSDFKKYVENRPVTPVSDLSEEENLLPGTPDFHTIPAFCLTPPYSPSDFEPSQVSNLMAPAPSTVHFKSLSDTAKPHIAAPFKEEEKSPVSAPKLPKAQATSVIRHTADAQLCNHQTCPMKAASILNYQNNSFRRRTHLNVEAARKNIPCAAVSPNRSKCERNTVADVDEKASAALYDFSVPSSETVICRSQPAPVSPQQKSVLVSPPAVSAGGVPPMPVICQMVPLPANNPVVTTVVPSTPPSQPPAVCPPVVFMGTQVPKGAVMFVVPQPVVQSSKPPVVSPNGTRLSPIAPAPGFSPSAAKVTPQIDSSRIRSHICSHPGCGKTYFKSSHLKAHTRTHTGEKPFSCSWKGCERRFARSDELSRHRRTHTGEKKFACPMCDRRFMRSDHLTKHARRHLSAKKLPNWQMEVSKLNDIALPPTPAPTQ
partner: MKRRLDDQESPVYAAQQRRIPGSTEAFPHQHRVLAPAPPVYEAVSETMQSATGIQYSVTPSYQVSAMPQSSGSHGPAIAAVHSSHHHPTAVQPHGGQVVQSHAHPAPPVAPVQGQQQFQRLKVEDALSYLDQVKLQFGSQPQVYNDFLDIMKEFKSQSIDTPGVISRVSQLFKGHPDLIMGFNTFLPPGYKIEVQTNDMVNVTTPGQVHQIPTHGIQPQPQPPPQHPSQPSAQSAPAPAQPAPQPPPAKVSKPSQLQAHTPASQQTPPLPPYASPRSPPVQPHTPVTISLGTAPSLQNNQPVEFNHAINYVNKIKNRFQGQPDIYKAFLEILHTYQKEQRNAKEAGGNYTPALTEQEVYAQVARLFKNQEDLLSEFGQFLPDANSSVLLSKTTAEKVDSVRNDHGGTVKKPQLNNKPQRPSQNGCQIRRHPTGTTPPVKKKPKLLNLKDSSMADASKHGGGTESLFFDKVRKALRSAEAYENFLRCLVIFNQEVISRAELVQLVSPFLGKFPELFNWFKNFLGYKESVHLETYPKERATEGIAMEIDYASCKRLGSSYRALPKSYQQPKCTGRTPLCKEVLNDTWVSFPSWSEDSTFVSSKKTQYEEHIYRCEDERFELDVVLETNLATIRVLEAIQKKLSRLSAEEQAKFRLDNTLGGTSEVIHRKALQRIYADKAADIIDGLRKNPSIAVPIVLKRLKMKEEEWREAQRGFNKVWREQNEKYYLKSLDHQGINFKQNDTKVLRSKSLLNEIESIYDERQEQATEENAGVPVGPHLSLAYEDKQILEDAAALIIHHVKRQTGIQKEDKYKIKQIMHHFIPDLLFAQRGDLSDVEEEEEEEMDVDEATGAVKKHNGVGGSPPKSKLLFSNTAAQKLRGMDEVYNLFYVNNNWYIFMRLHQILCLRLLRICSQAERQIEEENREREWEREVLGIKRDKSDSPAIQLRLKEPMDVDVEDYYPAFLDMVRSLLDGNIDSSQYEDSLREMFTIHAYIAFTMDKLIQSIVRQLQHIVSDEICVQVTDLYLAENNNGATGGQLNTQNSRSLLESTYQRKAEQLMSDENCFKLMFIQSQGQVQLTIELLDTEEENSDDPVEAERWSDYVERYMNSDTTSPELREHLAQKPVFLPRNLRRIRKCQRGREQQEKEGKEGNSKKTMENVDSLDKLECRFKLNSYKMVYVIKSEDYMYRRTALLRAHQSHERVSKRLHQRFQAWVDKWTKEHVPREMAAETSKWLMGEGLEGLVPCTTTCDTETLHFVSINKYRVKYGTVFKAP

Variants of: B1
Conditions: with sin3a_human SIN3A

Variant	effect of a mutation on the interaction
E40P;A41P	disrupting interaction strength
